Results reported in IntAct's records for PubMed 21746902.

B1: Epsin-3 (Saccharomyces cerevisiae), P47160 (parent)
chain: MSLEDTLANMSLYDAKKYFRKAQNVVFNYTEMEGKVREATNNEPWGASSTLMDQISQGTYNFREREEILSMIFRRFTEKAGSEWRQIYKALQLLDYLIKHGSERFIDDTRNSINLIRILETFHYIDSQGRDQGINVRTRVKALIELLSDDNKIRAERKKARETAKKYKGVAGGSASADGSLNSKAGFTSTKVHGISVSADFDSDNEDNEDGSFSQNGYNDNASRATSTPGQGKQEPEDFVDFFSSESSKPSKELIQEDEKKADEEEDDDDEFSEFQSAVPVTNPANSFNLLNTSPIEGMPATTSSMPFYNSSTTDQGKITPAIAEPKKVDPFSSLFSTAKASAEAPSAPKASQAKAAASNPVSNSTTALSTDQDDDDEFGEMHGGAVQQEQNTNNNHTSSKEIDLLSF
B2: t-SNARE VTI1 (Saccharomyces cerevisiae), Q04338 (parent)
chain: MSSLLISYESDFKTTLEQAKASLAEAPSQPLSQRNTTLKHVEQQQDELFDLLDQMDVEVNNSIGDASERATYKAKLREWKKTIQSDIKRPLQSLVDSGDRDRLFGDLNASNIDDDQRQQLLSNHAILQKSGDRLKDASRIANETEGIGSQIMMDLRSQRETLENARQTLFQADSYVDKSIKTLKTMTRRLVANKFISYAIIAVLILLILLVLFSKFK
partner: B1 chain

Variants of: B1
Settings: with vti1_yeast VTI1, Q04338

| effect of a mutation on the interaction | Variant |
| --- | --- |
| disrupting interaction strength | R157E |
| disrupting interaction strength | R161E |

Variants of: B2
Settings: with ent3_yeast ENT3, P47160

| effect of a mutation on the interaction | Variant |
| --- | --- |
| disrupting interaction strength | D96R |
| disrupting interaction strength | E42R |
| disrupting interaction strength | D46R |
